Experimental data as given in doi:10.1101/501064 (bioRxiv, 2018).
Non-standard residues stand in square brackets, D forms with d. No end group written: not given here. pS = N[C@@H](COP(=O)(O)O)C(=O)O

T1: human Scribble PDZ3 domain (1005-1094) (human, UniProt Q14160 1005-1094)
T1 sequence (looked up): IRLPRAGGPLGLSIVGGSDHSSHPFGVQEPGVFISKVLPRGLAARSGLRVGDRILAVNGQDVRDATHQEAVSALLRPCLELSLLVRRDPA


The binders below were run against T1, human Scribble PDZ3 domain (1005-1094) (assay: ITC).

Kd [µM]	Binder
3.7	PHTNET[pS]L [phosphorylated MCC 8-mer peptide (phospho-Ser at position -1)]
5	PHTNETSL [MCC 8-mer peptide spanning the C-terminus (PDZ-binding motif) of human MCC]
3.4	PHTNETDL [MCC_SD 8-mer peptide (Ser to Asp at position -1)]
4.5	PHTNETEL [MCC_SE 8-mer peptide (Ser to Glu at position -1)]

Each binder was assayed against human Scribble PDZ1 domain (728-815) (human, UniProt Q14160 728-815) (assay: ITC).
Sequence of human Scribble PDZ1 domain (728-815) (Q14160 728-815): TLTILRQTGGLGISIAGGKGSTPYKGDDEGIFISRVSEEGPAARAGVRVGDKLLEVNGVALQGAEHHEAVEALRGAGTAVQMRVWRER

Kd [µM]	Binder
6.1	PHTNET[pS]L [phosphorylated MCC 8-mer peptide (phospho-Ser at position -1)]
7.7	PHTNETSL [MCC 8-mer peptide spanning the C-terminus (PDZ-binding motif) of human MCC]
7	PHTNETDL [MCC_SD 8-mer peptide (Ser to Asp at position -1)]
7.2	PHTNETEL [MCC_SE 8-mer peptide (Ser to Glu at position -1)]
